In assay [1] the target is human GARP/TGFβ1 complex (protein used in ELISA and Octet) (human) (UniProt Q14392). The experiment in a line: Octet.
Assay [2] deals with human GARP/latent TGFβ1 complex on cells (human) (UniProt Q14392). The experiment in a line: flow cytometry on human GARP/latent TGFβ1 transfected CHO-S cells, goat anti-human IgG(H+L) FITC. For orientation: A flow cytometer gives signals particle by particle.
In assay [3] the target is human GARP protein not in any GARP/TGFβ1 complex (protein used in ELISA and Octet) (human) (UniProt Q14392). The experiment in a line: Octet. On the technique in general: BLI is a label-free optical method that tracks binding on a fibre tip over time.
Sequence of human GARP protein not in any GARP/TGFβ1 complex (protein used in ELISA and Octet) (human) (Q14392 20-627 limits assumed, one chain of several): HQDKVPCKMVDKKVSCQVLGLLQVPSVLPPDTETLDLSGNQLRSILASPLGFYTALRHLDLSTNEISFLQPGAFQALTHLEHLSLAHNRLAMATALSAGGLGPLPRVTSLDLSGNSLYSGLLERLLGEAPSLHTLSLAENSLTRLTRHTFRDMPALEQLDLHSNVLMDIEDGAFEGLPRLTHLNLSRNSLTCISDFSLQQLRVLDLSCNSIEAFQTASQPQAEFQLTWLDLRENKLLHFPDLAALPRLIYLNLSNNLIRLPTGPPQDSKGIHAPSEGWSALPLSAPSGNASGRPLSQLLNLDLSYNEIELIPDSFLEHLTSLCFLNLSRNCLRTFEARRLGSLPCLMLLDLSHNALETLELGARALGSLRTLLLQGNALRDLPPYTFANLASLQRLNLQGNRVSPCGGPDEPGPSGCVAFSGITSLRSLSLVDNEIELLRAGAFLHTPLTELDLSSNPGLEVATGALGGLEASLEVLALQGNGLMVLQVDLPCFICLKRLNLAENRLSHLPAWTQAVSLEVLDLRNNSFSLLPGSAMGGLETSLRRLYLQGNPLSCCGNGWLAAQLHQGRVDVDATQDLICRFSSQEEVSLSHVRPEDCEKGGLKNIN

By Kd is commonly meant the free concentration of one partner at which half of the binding sites on the other are occupied at equilibrium, for simple one-to-one binding. The low end stands for a tighter complex, the high end for a looser complex. For orientation: EC50 (read off the curve) means the concentration giving half of the maximal effect. A high value points to a less potent agent. On to “GARP ref. Ab1, an ABBV-151 analog (antibody)”, for which the Kd in assay [1] stood at 0.428 nM. This substance had an EC50 (read off the curve) in assay [2] of 0.3 µg/mL.

In the case of “GARP ref. Ab2, a DS-1005a analog (antibody)”, the Kd in assay [3] came to 2.02 nM; in assay [1] it was 4.12 nM.

These data come from patent publication US20230340098A1.
